# Laboratory results reported in US20160333110A1 (CHIOME BIOSCIENCE, published 2016).
# Residue numbers refer to the chain shown, from its start. Names may count otherwise.
# T1: recombinant hTACSTD2-Fc-His protein (Creative BioMart) (human, UniProt P09758 27-274, limits assumed)
# T1 construct: bought protein; also called hTROP-2 (low-density antigen-coated ELISA); not shown: Fc part of the bought fusion protein; not described; His tag
# T1 sequence: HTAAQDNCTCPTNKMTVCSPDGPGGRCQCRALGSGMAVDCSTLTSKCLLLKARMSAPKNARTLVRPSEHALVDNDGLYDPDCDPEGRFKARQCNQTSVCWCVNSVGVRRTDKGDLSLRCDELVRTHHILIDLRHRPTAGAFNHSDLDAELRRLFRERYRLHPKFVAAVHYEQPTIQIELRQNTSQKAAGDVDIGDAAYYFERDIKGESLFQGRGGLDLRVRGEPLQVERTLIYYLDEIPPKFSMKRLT
# T2: recombinant protein of the hTROP-2 extracellular region (human, UniProt P09758 27-263)
# T2 construct: produced with baculovirus, purified on Ni Sepharose; also called hTROP-2 EC; hTROP-2-EC-His; not shown: C-terminal myc-His tag from pcDNA4/myc-His A
# T2 sequence: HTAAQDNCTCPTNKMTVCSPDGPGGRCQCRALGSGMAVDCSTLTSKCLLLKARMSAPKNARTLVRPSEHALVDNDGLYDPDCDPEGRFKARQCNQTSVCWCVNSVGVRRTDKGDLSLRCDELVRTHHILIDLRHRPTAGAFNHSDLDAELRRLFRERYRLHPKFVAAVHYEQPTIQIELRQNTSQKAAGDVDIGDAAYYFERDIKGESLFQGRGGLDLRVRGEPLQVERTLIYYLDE
# T3: human TROP-2 (hTROP-2) endogenously expressed on the cell surface of human cancer cell lines (human, UniProt P09758 27-323)
# T3 construct: also called TACSTD2; PK-59 cells
# T3 sequence: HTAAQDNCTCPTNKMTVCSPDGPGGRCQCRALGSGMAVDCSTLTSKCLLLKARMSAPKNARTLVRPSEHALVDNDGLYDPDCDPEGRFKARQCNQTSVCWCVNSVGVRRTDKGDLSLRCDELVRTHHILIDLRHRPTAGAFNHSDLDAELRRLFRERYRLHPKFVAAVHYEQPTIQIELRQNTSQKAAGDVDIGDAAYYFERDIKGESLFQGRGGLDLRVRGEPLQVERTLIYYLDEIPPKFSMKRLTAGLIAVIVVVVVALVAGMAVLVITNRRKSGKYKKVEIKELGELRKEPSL
# T4: human TROP-1/EpCAM protein transiently expressed in CHO-K1 cells (human, UniProt P16422 24-314)
# T4 construct: whole, on cells; also called human EpCAM/TROP-1; hEpCAM; not shown: C-terminal myc/His tag from pcDNA3.1-hEpCAM-myc/His
# T4 sequence (looked up): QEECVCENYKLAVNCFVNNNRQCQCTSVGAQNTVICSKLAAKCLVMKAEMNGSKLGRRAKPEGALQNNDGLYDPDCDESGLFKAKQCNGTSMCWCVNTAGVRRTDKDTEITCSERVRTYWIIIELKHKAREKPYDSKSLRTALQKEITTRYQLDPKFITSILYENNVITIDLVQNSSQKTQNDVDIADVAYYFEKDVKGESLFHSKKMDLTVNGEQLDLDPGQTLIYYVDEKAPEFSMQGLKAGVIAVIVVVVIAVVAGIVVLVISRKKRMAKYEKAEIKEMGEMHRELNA
# T5: mouse TROP-2 protein transiently expressed in CHO-K1 cells (mouse, UniProt Q8BGV3 25-317)
# T5 construct: whole, on cells
# T5 sequence (looked up): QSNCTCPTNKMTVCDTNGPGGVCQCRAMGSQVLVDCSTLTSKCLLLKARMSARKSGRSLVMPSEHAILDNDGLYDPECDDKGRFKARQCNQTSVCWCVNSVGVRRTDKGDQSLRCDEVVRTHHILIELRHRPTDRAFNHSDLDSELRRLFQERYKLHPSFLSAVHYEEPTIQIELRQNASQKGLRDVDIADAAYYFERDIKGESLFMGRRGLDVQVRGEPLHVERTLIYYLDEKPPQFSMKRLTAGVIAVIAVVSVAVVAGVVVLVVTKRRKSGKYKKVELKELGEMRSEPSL
# B1: humanized K5-70 antibody (HuK5-70) (antibody, V domains shown)
# VH: QVQLVQSGAEVKKPGASVKVSCKASGYTFTIYWINWVRQAPGQRLEWIGNIYPSDSYTNYNQKFKDKATLTVDTSASTAYMELSSLRSEDTAVYYCTRTSMADYWGQGTLVTVSS
# VL: EIVLTQSPATLSLSPGERATLSCRASQSIGTSIHWYQQKPGQAPRLLIKYASESISGIPARFSGSGSGTDFTLTISSLEPEDFAVYYCQQSNSWPFTFGQGTKVEIK
# notes: human IgG1 / human kappa constant regions from the vectors pFUSE-CHIg-hG1 and pFUSE2-CLIg-hk; also called HuK5-70 antibody
# B2: HuK5-70-2 antibody (HuK5-70 R44G mutant antibody) (antibody, V domains shown)
# VH: B1 VH with R44G
# VL: B1 VL
# notes: also called HuK5-70 VH R44G; HuK5-70 VH2
# B3: humanized T6-16 antibody HuT6-16-1 (antibody, V domains shown)
# VH: QVQLVQSGAEVKKPGASVKVSCKASGYTFTDYNMHWVRQAPGQGLEWIGYIYPYNGGTGYNQRFKSRATMTVDKSTSTAYMELRSLRSDDTAVYYCAREDYGSSPSYAMDYWGQGTMVTVSS
# VL: DIVMTQSPLSLPVTPGEPASISCRSSQSLVHGNGNTYLHWYLQKPGQSPQLLIYKVSNRFSGVPDRFSGSGSGTDFTLKISRVEAEDVGVYYCSQTTHVPTFGGGTKVEIK
# notes: HuT6-16 VH1 with HuT6-16 VL; also called HuT6-16-1 antibody
# B4: humanized T6-16 antibody HuT6-16-2 (antibody, V domains shown)
# VH: B3 VH with K74T
# VL: B3 VL
# notes: HuT6-16 VH2 with HuT6-16 VL; also called HuT6-16-2 antibody
# B5: anti-hTROP-2 monoclonal antibody clone K5-116-2-1 (antibody, mouse IgG2a, V domains shown)
# VH: QVQLQQPGAELVRPGASVKLSCKASGYTFTSYWITWVKQRPGQGLEWIGNIYPSDSYTNYNQKFRDKATLTVDKSSSTAYMQLSSPTSEDSAVYYCSALFDYWGQGTTLTVSS
# VL: DILLTQSPAILSVSPGERVSFSCRASQSIGTSIHWYQQRTNGSPRLLIKYASESISGIPSRFSGSGSGTDFILSINSVESEDIADYYCQQSNSWPFTFGSGTKLEIK
# notes: mouse IgG2a, hybridoma FERM BP-11253
# B6: anti-hTROP-2 monoclonal antibody clone K5-107 (antibody, mouse IgG1, V domains shown)
# VH: QVQLQQPGSELVRPGASVKLSCKASGYTFTSYWMHWVKQRHGQGLEWIGNIYPGGGYTNYDEKFKSKGTLTVDTSSSTAYMHLSSLTSEDSAVYYCTRSSVFDYWGQGTTLTVSS
# VL: B5 VL with S28N, Y36F, I72T
# notes: mouse IgG1, hybridoma FERM BP-11252
# Key:
# [1] = biological target: T1, recombinant hTACSTD2-Fc-His protein …; assay: low-density antigen-coated ELISA, plate coated with 0.1 µg/mL hTACSTD2-Fc-His, purified antibodies; HuK5-70 (humanized antibody); low-density ELISA, 0.1 µg/mL hTROP-2 coat
# [2] = biological target: T2, recombinant protein of the hTROP-2 …; assay: antigen-coated ELISA, plate coated with 0.5 µg/ml hTROP-2 extracellular region
# Protocol: (§1) Furthermore, antigen affinity was also examined by an ELISA method. ELISA was carried out using an ELISA plate which was coated with the recombinant protein of the hTROP-2 extracellular region as described in Example 3. Specifically, a 96-well plate (BD FALCON) was coated with a 50 μl/well recombinant protein of a hTROP-2 extracellular region that had been diluted with PBS to 0.5 μg/ml (at 4° C. overnight). Thereafter, the resultant was washed with a washing buffer (PBS containing 0.05% Tween 20), and a blocking buffer (PBS containing 2% skim milk and 0.05% Tween 20) was then added thereto (200 μl/well) to block it (at room temperature for 1 hour). The resultant was washed with a washing buffer. […] The obtained dilution samples were each added in an amount of 50 μl/well to the above-described ELISA plate (at room temperature for 2 hours). […] After the mixture had been washed with a washing buffer, a TMB (3,3′,5,5′-tetramethylbenzidine: SIGMA) substrate solution was added (50 μl/well) to the resultant to carry out a color reaction. Then, 1 M sulfuric acid (25 μl/well) was added to the reaction product to terminate the reaction. Using Microplate reader Model 550 (BioRad), an absorbance at 450 nm was measured with an absorbance at 655 nm used as a reference.
# [3] = biological target: T1, recombinant hTACSTD2-Fc-His protein …; assay: low-density antigen-coated ELISA, plate coated with 0.1 µg/mL hTACSTD2-Fc-His
# Protocol: as §1, with “Specifically, a 96-well plate (BD FALCON) was coated with a 50 μl/well recombinant protein of a hTROP-2 extracellular region that had been diluted with PBS to 0.5 μg/ml (at 4° C. overnight).” left out
# [4] = biological target: T2, recombinant protein of the hTROP-2 …; assay: monovalent ELISA: antibody captured by anti-human IgG Fc, hTROP-2 EC titrated in solution, detected with anti-His
# Protocol: Thereafter, coating was carried out at 4° C. overnight. Thereafter, the reaction product was washed with a washing buffer (PBS containing 0.05% Tween 20), and a blocking buffer (PBS containing 2% skim milk and 0.05% Tween 20) was then added thereto (200 μL/well) to block it (at room temperature for 1 hour). The resultant was washed with a washing buffer. […] The mixture was left at rest at room temperature for 1 hour, and the reaction product was then washed with a washing buffer. The recombinant protein of the hTROP-2 extracellular region described in Example 3 (hTROP-2 EC) was diluted with an ELISA buffer to prepare samples with a concentration range from 5 μg/mL to a series of three-fold dilutions (10 samples). The thus obtained sample was added in each amount of 50 μL/well to the plate. The mixture was left at rest at room temperature for 1 hour, and the reaction product was then washed with a washing buffer. […] The obtained mixture was left at rest at room temperature for 1 hour, and it was then washed with a washing buffer. […] The obtained mixture was left at rest at room temperature for 1 hour, and it was then washed with a washing buffer. […] Using Microplate reader Model 550 (BioRad), an absorbance at 450 nm was measured with an absorbance at 655 nm used as a reference.
# [5] = biological target: T1, recombinant hTACSTD2-Fc-His protein …; assay: low-density antigen-coated ELISA, plate coated with 0.1 µg/mL hTACSTD2-Fc-His, purified antibodies; HuK5-70-2 (R44G mutant); low-density ELISA, 0.1 µg/mL hTROP-2 coat
# [6] = biological target: T3, human TROP-2 (hTROP-2) endogenously …; assay: FACS on PK-59 cells, 0.1 µg antibody
# Protocol: (§2) Cancer cells were removed from a culture dish by a trypsin treatment, and a cell suspension was then prepared (cell density: 2×10⁶ cells/mL). An anti-hTROP-2 monoclonal antibody (0.1 μg) was added to 100 μL of the cell suspension, and they were then reacted at 4° C. for 20 minutes. The reaction solution was washed with PBS, and it was then reacted with PE-labeled anti-mouse IgG (BD Biosciences Pharmingen) (0.1 μg) (at 4° C. for 30 minutes). Thereafter, the resultant was analyzed by FACSCalibur (Becton, Dickinson and Company).
# (§3) Subsequently, the reactivity of the generated anti-hTROP-2 monoclonal antibodies with human cancer cell lines (in which an hTROP-2 protein was endogenously expressed on the cell surface) was examined by FACS analysis.
# [7] = biological target: T3, human TROP-2 (hTROP-2) endogenously …; assay: FACS on BxPC-3 cells, 0.1 µg antibody
# Protocol: as §2, §3
# [8] = biological target: T4, human TROP-1/EpCAM protein transiently …; assay: FACS on CHO-K1 cells transiently expressing human EpCAM/TROP-1
# From the text: (§4) Specifically, each of an expression vector (mouse TROP-2-pcDNA3.1(+), furnished by the Institute of Molecular and Cellular Biosciences, the University of Tokyo) comprising the full-length cDNA of a mouse TROP-2 gene (GenBank accession No. NM_020047, Y08830), and an expression vector (pcDNA3.1-hEpCAM-myc/His) comprising the full-length cDNA of a human TROP-1/EpCAM gene (GenBank accession No. NM_002354), was transiently introduced into CHO-K1 cells, using Lipofectamine2000 reagent (Invitrogen). Thereafter, 24 to 48 hours later, the cells were removed from a culture dish by treating them with trypsin, and a cell suspension was then prepared. The thus prepared cell suspension was successively reacted with the produced anti-hTROP-2 monoclonal antibody (0.1 μg) and with PE-labeled anti-mouse IgG, and it was then analyzed by FACSCalibur.
# [9] = biological target: T5, mouse TROP-2 protein transiently …; assay: FACS on CHO-K1 cells transiently expressing mouse TROP-2
# From the text: as §4
Binder,EC50 [2],EC50 [3],binding result [8],binding result [9],also measured
B1,0.022 µg/mL,0.222 µg/mL,,,EC50 [1]: 0.0334 µg/mL; EC50 relative to that of the K5-70 antibody [3]: ~20 times; EC50 [4]: 0.006 µg/mL
B2,,,,,EC50 [5]: 0.0114 µg/mL
B3,0.027 µg/mL,,,,
B4,0.027 µg/mL,0.049 µg/mL,,,
B5,,,no binding (tested: 0.1 µg antibody),no binding (tested: 0.1 µg antibody),"mean fluorescence intensity, times that with PE-labeled anti-mouse IgG alone [6]: 122 times; mean fluorescence intensity, times that with PE-labeled anti-mouse IgG alone [7]: 121 times"
B6,,,no binding (tested: 0.1 µg antibody),no binding (tested: 0.1 µg antibody),
